The results in this text go back to patent US20240101668A1 (WUGEN, published 2024).

Test in all cases: FACS on cells
The target in test [1] is T1, huFLT3-M227 stably expressed on Ramos cells (human, UniProt P36888 27-993).
T1 construct: whole, on cells; also called FLT3 Mutant
Method: For FLT3, Ramos cells were engineered to stably express either the huFLT3-T227 or huFLT3-M227 variant at >200,000 receptors per cell. Parental, huFLT3-T227, and huFLT3-M227 Ramos cell lines were stained with differing levels of CellTrace Violet Cell Proliferation Kit (ThermoFisher, cat. #C34557) to barcode each cell line. Barcoded Ramos cell lines were fixed with paraformaldehyde and incubated with myc-labeled scFv periplasmic extracts and a secondary anti-myc PE-conjugated monoclonal antibody. Appropriate positive and negative controls were used. Stained cells were analyzed by flow cytometry (CytoFLEX, Beckman Coulter, Inc.) and binding was assessed by change in PE mean fluorescence intensity (MFI) of the barcoded cell populations.

Test [2] addresses T2, huCD33-G69 stably expressed on Jurkat cells (human, UniProt P20138 18-364).
T2 construct: whole, on cells; >200,000 receptors per cell; also called CD33 Mutant; CD33 R69G

Test [3] concerns the target T3, huCD33-R69 stably expressed on Jurkat cells (human, UniProt P20138 18-364).
T3 construct: whole, on cells; >200,000 receptors per cell; also called CD33 WT; CD33^ARG69

T1 sequence (P36888 27-993 T227M): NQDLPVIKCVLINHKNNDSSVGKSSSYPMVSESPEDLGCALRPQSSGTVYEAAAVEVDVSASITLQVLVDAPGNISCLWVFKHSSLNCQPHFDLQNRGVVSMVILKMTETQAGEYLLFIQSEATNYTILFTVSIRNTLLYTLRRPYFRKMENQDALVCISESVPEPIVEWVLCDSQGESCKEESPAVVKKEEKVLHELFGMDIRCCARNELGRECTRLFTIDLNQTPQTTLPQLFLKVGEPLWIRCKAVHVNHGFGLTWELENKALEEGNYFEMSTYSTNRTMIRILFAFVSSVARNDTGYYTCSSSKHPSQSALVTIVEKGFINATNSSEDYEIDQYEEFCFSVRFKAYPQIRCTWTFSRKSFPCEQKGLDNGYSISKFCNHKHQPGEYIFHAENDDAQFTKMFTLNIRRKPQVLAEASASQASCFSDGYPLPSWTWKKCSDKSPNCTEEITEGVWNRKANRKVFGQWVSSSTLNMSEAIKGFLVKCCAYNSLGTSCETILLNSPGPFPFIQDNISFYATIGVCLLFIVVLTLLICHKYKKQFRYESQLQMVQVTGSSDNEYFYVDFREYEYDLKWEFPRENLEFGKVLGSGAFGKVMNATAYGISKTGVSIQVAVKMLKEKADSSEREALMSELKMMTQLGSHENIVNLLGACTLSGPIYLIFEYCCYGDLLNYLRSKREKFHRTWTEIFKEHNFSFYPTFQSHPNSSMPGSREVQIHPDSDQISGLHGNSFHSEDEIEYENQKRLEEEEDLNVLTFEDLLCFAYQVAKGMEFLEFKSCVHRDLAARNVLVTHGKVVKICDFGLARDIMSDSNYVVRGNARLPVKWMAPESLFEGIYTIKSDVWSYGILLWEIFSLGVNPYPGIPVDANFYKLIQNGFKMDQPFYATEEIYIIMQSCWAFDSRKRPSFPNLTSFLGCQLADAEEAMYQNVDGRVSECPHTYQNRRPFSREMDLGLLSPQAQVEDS
T2 sequence (P20138 18-364 R69G): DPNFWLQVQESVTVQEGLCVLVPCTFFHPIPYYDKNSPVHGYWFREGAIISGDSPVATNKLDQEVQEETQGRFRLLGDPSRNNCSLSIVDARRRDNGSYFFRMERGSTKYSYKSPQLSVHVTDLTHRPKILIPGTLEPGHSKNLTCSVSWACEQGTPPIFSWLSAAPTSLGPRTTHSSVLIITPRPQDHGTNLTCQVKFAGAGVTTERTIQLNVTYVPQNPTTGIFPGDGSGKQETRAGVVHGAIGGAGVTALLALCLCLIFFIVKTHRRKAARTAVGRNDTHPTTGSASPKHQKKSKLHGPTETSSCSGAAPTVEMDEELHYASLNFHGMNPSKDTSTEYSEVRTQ
T3 sequence (P20138 18-364): as the sequence (P20138 18-364 R69G) above, with G52R counted along it

B1: Polypeptide No. 224 (scFv, V domains shown)
VH: QVQLVQSGAEVKKPGSSVKVSCKASGYTFTGYYMHWVRQAPGQGLEWMGVINPIYGTANYALKFQGRVTITADESTSTAYMELSSLRSEDTAVYYCAKAISSGWSNDAFDIWGQGTMVTVSS
VL: EIVMTQSPATLSVSPGERATLSCRASQSVSSDFLAWYQQKPGQAPRLLIYDTSSRASGIPARFSGSGSGTEFTLTISSLQSEDFAVYYCQQYAGPPTFGQGTRLEIKR
notes: scFv
Take B1: in test [1], the “FACS geometric mean fold change over Jurkat parental” value (“FACS geometric mean fold change” below) was in the range of 2 to 10 fold.

B2: Polypeptide No. 108 (scFv, V domains shown)
VH: QVQLVQSGAEVKKPGASVKVSCKASGYTFTNYDINWVRQAPGQGLEWMGWMNPNSGNTGLVEKFQGRVTMTRDTSTSTVYMELSSLRSEDTAVYYCARGWGHGYGDYKFDYWGQGTLVTVSS
VL: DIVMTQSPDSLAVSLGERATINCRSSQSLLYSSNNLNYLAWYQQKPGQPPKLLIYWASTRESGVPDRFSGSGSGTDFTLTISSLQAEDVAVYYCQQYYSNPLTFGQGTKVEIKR
notes: scFv
For the molecule B2, the “FACS geometric mean fold change” value in test [2] and in test [3] was 10 to 30 fold throughout.

B3: Polypeptide No. 89 (scFv, V domains shown)
VH: QVQLVQSGAEVKKPGASVKVSCKASGYTFTNYYMHWVRQAPGQGLEWMGWINPNSGDTNYEQKFQGRVTMTRDTSTSTVYMELSSLRSEDTAVYYCARDDRIQLWVPLVFWGQGTLVTVSS
VL: DIQMTQSPSSLSASVGDRVTITCRASQGISNYLAWYQQKPGKAPKLLIYSASNLQSGVPSRFSGSGSGTDFTLTISSLQPEDFATYYCQQSFSTPFTFGQGTKLEIKR
notes: scFv
Regarding B3, the “FACS geometric mean fold change” value in test [2] and in test [3] was 10 to 30 fold in each case.

B4: Polypeptide No. 192 (scFv, V domains shown)
VH: QVQLVQSGAEVKKPGASVKVSCKASGYTFTNYYMHWVRQAPGQGLEWMGWINPNSGDTNYEQKFQGRVTMTRDTSTSTVYMELSSLRSEDTAVYYCARDDRIQLWVPLVFWGQGTLVTVSS
VL: DIQMTQSPSSLSASVGDRVTITCRASQGISNYLAWYQQKPGKAPKLLIYSASNLQSGVPSRFSGSGSGTDFTLTISSLQPEDFATYYCQQSFSTPFTFGQGTKLEIKR
notes: scFv
With B4, the “FACS geometric mean fold change” value in test [2] and in test [3] was 10 to 30 fold each time.

B5: Polypeptide No. 226 (scFv, V domains shown)
VH: QVQLVQSGAEVKKPGASVKVSCKASGYTFTGYYMHWVRQAPGQGLEWMGIIDPSGGSTSYAQKFQGRVTMTRDTSTSTVYMELSSLRSEDTAVYYCARDRSLLWSGVGGMDVWGQGTTVTVSS
VL: DIQMTQSPSSLSASVGDRVTITCRASQGISNYLAWYQQKPGKAPKLLIYGASNLQSGVPSRFSGSGSGTDFTLTISSLQPEDFATYYCQQSYGTPYTFGQGTKLEIKR
notes: scFv
With B5, the “FACS geometric mean fold change” value in test [1] fell in the range of 2 to 10 fold.

B6: Polypeptide No. 90 (scFv, V domains shown)
VH: EVQLLESGGGLVQPGGSLRLSCAASGFTFSNSDMNWVRQAPGKGLEWVSYISGTGSTIYYADSVKGRFTISRDNSKNTLYLQMNSLRAEDTAVYYCAKDYDSSYGSGYYGMDVWGQGTTVTVSS
VL: DIQMTQSPSSLSASVGDRVTITCRASQSIYNYLNWYQQKPGKAPKLLIYAASNLQSGVPSRFSGSGSGTDFTLTISSLQPEDFATYYCQQYGNAPLTFGQGTKVEIKR
notes: scFv
With B6, the “FACS geometric mean fold change” value in test [2] and in test [3] was greater than 30 fold in each case.

B7: Polypeptide No. 193 (scFv, V domains shown)
VH: EVQLLESGGGLVQPGGSLRLSCAASGFTFSNSDMNWVRQAPGKGLEWVSYISGTGSTIYYADSVKGRFTISRDNSKNTLYLQMNSLRAEDTAVYYCAKDYDSSYGSGYYGMDVWGQGTTVTVSS
VL: DIQMTQSPSSLSASVGDRVTITCRASQSIYNYLNWYQQKPGKAPKLLIYAASNLQSGVPSRFSGSGSGTDFTLTISSLQPEDFATYYCQQYGNAPLTFGQGTKVEIKR
notes: scFv
With B7, the “FACS geometric mean fold change” value in test [2] and in test [3] was greater than 30 fold in each case.

B8: Polypeptide No. 100 (scFv, V domains shown)
VH: QVQLVQSGAEVKKPGASVKVSCKASGATRSWMHWVRQAPGQGLEWMGIINPSGDSTSYAQKFQGRVTMTRDTSTSTVYMELSSLRSEDTAVYYCAKEPYSSSPYYFDYWGQGTLVTVSS
VL: DIQMTQSPSSLSASVGDRVTITCRASQSISSWLAWYQQKPGKAPKLLIYGASSLQSGVPSRFSGSGSGTDFTLTISSLQPEDFATYYCQQSYTTPITFGQGTRLEIKR
notes: scFv
Consider B8, for which the “FACS geometric mean fold change” value in test [2] and in test [3] was 10 to 30 fold throughout.

B9: Polypeptide No. 91 (scFv, V domains shown)
VH: QVQLVQSGAEVKKPGASVKVSCKASGGTFSSYAISWVRQAPGQGLEWMGWMNPNSGNTGYAQKFQGRVTMTRDTSTSTVYMELSSLRSEDTAVYYCAREDYYDSSGNFDYWGQGTLVTVSS
VL: DIQMTQSPSSLSASVGDRVTITCQASHDINIHLNWYQQKPGKAPKLLIYDASNLETGVPSRFSGSGSGTDFTLTISSLQPEDFATYYCQQAYSLPWTFGQGTKVEIKR
notes: scFv
On to B9, for which the “FACS geometric mean fold change” value in test [2] was 10 to 30 fold; in test [3], greater than 30 fold.

B10: Polypeptide No. 191 (scFv, V domains shown)
VH: QVQLVQSGAEVKKPGASVKVSCKASGGTFSSYAISWVRQAPGQGLEWMGWMNPNSGNTGYAQKFQGRVTMTRDTSTSTVYMELSSLRSEDTAVYYCAREDYYDSSGNFDYWGQGTLVTVSS
VL: DIQMTQSPSSLSASVGDRVTITCQASHDINIHLNWYQQKPGKAPKLLIYDASNLETGVPSRFSGSGSGTDFTLTISSLQPEDFATYYCQQAYSLPWTFGQGTKVEIKR
notes: scFv
As to B10, the entries for the “FACS geometric mean fold change” value in test [2] and in test [3] were 10 to 30 fold and greater than 30 fold, respectively.

B11: Polypeptide No. 282 (scFv, V domains shown)
VH: QVQLVQSGAEVKKPGASVKVSCKASGGTFSSYAISWVRQAPGQGLEWMGWMNPNSGDTGYAQKFQGRVTMTRDTSTSTVYMELSSLRSEDTAVYYCARDFEGGGWFDPWGQGTLVTVSS
VL: EIVMTQSPATLSVSPGERATLSCRASRSISDYLAWYQQKPGQAPRLLIYDASSRATGIPARFSGSGSGTEFTLTISSLQSEDFAVYYCQQYYTTPLTFGQGTKVEIKR
notes: scFv
Turning to B11, the “FACS geometric mean fold change” value in test [1] was 2 to 10 fold.

B12: Polypeptide No. 210 (scFv, V domains shown)
VH: QVQLVQSGAEVKKPGSSVKVSCKASGYTLTELSMHWVRQAPGQGLEWMGGIIPISGTTKYAQKFQGRVTITADESTSTAYMELSSLRSEDTAVYYCARASPRYYMDVWGKGTTVTVSS
VL: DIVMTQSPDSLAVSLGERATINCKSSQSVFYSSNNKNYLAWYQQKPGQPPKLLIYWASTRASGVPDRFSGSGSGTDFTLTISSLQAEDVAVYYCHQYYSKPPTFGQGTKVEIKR
notes: scFv
B12: the “FACS geometric mean fold change” value in test [1] lay in the range of 2 to 10 fold.

B13: Polypeptide No. 245 (scFv, V domains shown)
VH: QVQLVQSGAEVKKPGSSVKVSCKASGYTFTGFYIHWVRQAPGQGLEWMGGVIPFFSRTIYAQKFQGRVTITADESTSTAYMELSSLRSEDTAVYYCAYGANGHLYGMDAWGQGTTVTVSS
VL: EIVMTQSPATLSVSPGERATLSCRASQSVSSSYLAWYQQKPGQAPRLLIYGASTRATGIPARFSGSGSGTEFTLTISSLQSEDFAVYYCQQYSSSPLTFGQGTKVEIKR
notes: scFv
As for B13, the “FACS geometric mean fold change” value in test [1] fell in the range of 2 to 10 fold.

B14: Polypeptide No. 250 (scFv, V domains shown)
VH: QVQLVQSGAEVKKPGSSVKVSCKASGYTLTSFAMHWVRQAPGQGLEWMGRIIPMSGTANYAQKFQGRVTITADESTSTAYMELSSLRSEDTAVYYCASTSPDQYYYGMDVWGQGTTVTVSS
VL: EIVMTQSPATLSVSPGERATLSCRASQSVGSSSLAWYQQKPGQAPRLLIYGASTRATGIPARFSGSGSGTEFTLTISSLQSEDFAVYYCQQYGSSPYTFGQGTKVEIKR
notes: scFv
As to B14, the “FACS geometric mean fold change” value in test [1] is 2 to 10 fold.

B15: Polypeptide No. 268 (scFv, V domains shown)
VH: QVQLVQSGAEVKKPGSSVKVSCKASGGTFSTYALSWVRQAPGQGLEWMGGVIPVFGTTDYAHKFQGRVTITADESTSTAYMELSSLRSEDTAVYYCASMIIFGAGGWDAYYFQEWGQGTLVTVSS
VL: EIVMTQSPATLSVSPGERATLSCRASQSVNNNQLAWYQQKPGQAPRLLIYDTSSRATGIPARFSGSGSGTEFTLTISSLQSEDFAVYYCQQYDTSPYTFGQGTKVEIKR
notes: scFv
B15: in test [1], the “FACS geometric mean fold change” value fell in the range of 2 to 10 fold.

B16: Polypeptide No. 281 (scFv, V domains shown)
VH: QVQLVQSGAEVKKPGASVKVSCKASGYTFNSYGISWVRQAPGQGLEWMGIINPTGGSTTYAQKFQGRVTMTRDTSTSTVYMELSSLRSEDTAVYYCAKDPFVMDVWGQGTTVTVSS
VL: EIVMTQSPATLSVSPGERATLSCRASQSVSSSYLAWYQQKPGQAPRLLIYDASARAAGIPARFSGSGSGTEFTLTISSLQSEDFAVYYCQQYYSTPYTFGQGTKLEIKR
notes: scFv
Consider B16, for which, in test [1], the “FACS geometric mean fold change” value is 2 to 10 fold.

B17: Polypeptide No. 263 (scFv, V domains shown)
VH: QVQLVQSGAEVKKPGSSVKVSCKASGGTFSSYAISWVRQAPGQGLEWMGGIIPIVGVANYAQKLQGRVTITADESTSTAYMELSSLRSEDTAVYYCAKDIGGYPSDAFDIWGQGTTVTVSS
VL: EIVMTQSPATLSVSPGERATLSCRASQSVSSSYLAWYQQKPGQAPRLLIYDVSTRATGIPARFSGSGSGTEFTLTISSLQSEDFAVYYCQQYGSSPITFGQGTKVEIKR
notes: scFv
For the molecule B17, in test [1], the “FACS geometric mean fold change” value fell in the range of 2 to 10 fold.

B18: Polypeptide No. 286 (scFv, V domains shown)
VH: QVQLVQSGAEVKKPGASVKVSCKASGYTFTSYGISWVRQAPGQGLEWMGWISPNSGVTNYAQKFQGRVTMTRDTSTSTVYMELSSLRSEDTAVYYCVSDDYGAFDYWGQGTLVTVSS
VL: EIVMTQSPATLSVSPGERATLSCRASQSVSSSYLAWYQQKPGQAPRLLIYDVSTRASGIPARFSGSGSGTEFTLTISSLQSEDFAVYYCQQYNNWPYTFGQGTKLEIKR
notes: scFv
For B18, in test [1], the “FACS geometric mean fold change” value is 2 to 10 fold.
